Reference: the Immune Epitope Database (IEDB)

What was measured:
Test in all cases: IEDB peptide-MHC binding, purified MHC/competitive/radioactivity; filed as Kd, often an IC50 or EC50 that approximates it; ≥ and ≤ were set here for values at or beyond the usual limits of such assays
Settings in all cases: source organism: Influenza A virus
HLA-A*33:01 = target: HLA-A*33:01
HLA-A*11:01 = target: HLA-A*11:01
HLA-A*03:01 = target: HLA-A*03:01
HLA-A*31:01 = target: HLA-A*31:01
HLA-A*68:01 = target: HLA-A*68:01
HLA-A*02:03 = target: HLA-A*02:03
HLA-A*68:02 = target: HLA-A*68:02
HLA-A*02:01 = target: HLA-A*02:01
HLA-A*02:06 = target: HLA-A*02:06
HLA-A*02:02 = target: HLA-A*02:02
HLA-A*29:02 = target: HLA-A*29:02
HLA-A*23:01 = target: HLA-A*23:01
HLA-A*24:02 = target: HLA-A*24:02
HLA-A*30:02 = target: HLA-A*30:02
HLA-B*40:02 = target: HLA-B*40:02
HLA-B*44:03 = target: HLA-B*44:03
HLA-B*44:02 = target: HLA-B*44:02
HLA-B*18:01 = target: HLA-B*18:01
HLA-B*40:01 = target: HLA-B*40:01
HLA-B*45:01 = target: HLA-B*45:01
HLA-B*53:01 = target: HLA-B*53:01
HLA-B*54:01 = target: HLA-B*54:01
HLA-B*35:01 = target: HLA-B*35:01
HLA-B*51:01 = target: HLA-B*51:01
HLA-A*01:01 = target: HLA-A*01:01

SVQRNLPFER
Kd (HLA-A*33:01): 321 nM | Kd (HLA-A*11:01): 411 nM | Kd (HLA-A*03:01): ≥ 10000 nM | Kd (HLA-A*31:01): 104 nM | Kd (HLA-A*68:01): 19 nM

CLPACVYGL
Kd (HLA-A*02:03): 143 nM | Kd (HLA-A*68:02): 3770 nM | Kd (HLA-A*02:01): 79 nM | Kd (HLA-A*02:06): 95 nM | Kd (HLA-A*02:02): 4 nM

VLRGFLILGK
Kd (HLA-A*33:01): ≥ 10000 nM | Kd (HLA-A*11:01): 460 nM | Kd (HLA-A*03:01): 10 nM | Kd (HLA-A*31:01): 85 nM | Kd (HLA-A*68:01): 1160 nM

FYRYGFVANF
Kd (HLA-A*29:02): 812 nM | Kd (HLA-A*23:01): 13 nM | Kd (HLA-A*24:02): 17 nM | Kd (HLA-A*30:02): ≥ 10000 nM

FQVDCFLWHV
Kd (HLA-A*02:03): 3 nM | Kd (HLA-A*68:02): 219 nM | Kd (HLA-A*02:01): 4 nM | Kd (HLA-A*02:06): ≤ 1 nM | Kd (HLA-A*02:02): 4 nM

RLFFKCIYRR
Kd (HLA-A*33:01): 238 nM | Kd (HLA-A*11:01): 294 nM | Kd (HLA-A*03:01): 135 nM | Kd (HLA-A*31:01): 5 nM | Kd (HLA-A*68:01): 88 nM

TEVETYVLSI
Kd (HLA-B*40:02): 195 nM | Kd (HLA-B*44:03): 247 nM | Kd (HLA-B*44:02): 6880 nM | Kd (HLA-B*18:01): 136 nM | Kd (HLA-B*40:01): 133 nM | Kd (HLA-B*45:01): 504 nM

KSCLPACVY
Kd (HLA-A*29:02): ≥ 10000 nM | Kd (HLA-A*30:02): 43 nM

NMLSTVLGV
Kd (HLA-A*02:03): 11 nM | Kd (HLA-A*68:02): 1060 nM | Kd (HLA-A*02:06): 3 nM | Kd (HLA-A*02:02): 5 nM

LPRRSGAAGA
Kd (HLA-B*53:01): ≥ 10 µM | Kd (HLA-B*54:01): 47 nM | Kd (HLA-B*35:01): ≥ 10 µM | Kd (HLA-B*51:01): ≥ 10 µM

SFSFGGFTFK
Kd (HLA-A*33:01): 85 nM

QEIRTFSFQL
Kd (HLA-B*40:02): 68 nM | Kd (HLA-B*44:03): 431 nM | Kd (HLA-B*44:02): 102 nM | Kd (HLA-B*18:01): 515 nM | Kd (HLA-B*40:01): 135 nM | Kd (HLA-B*45:01): 380 nM

GTFEFTSFFY
Kd (HLA-A*33:01): 5410 nM | Kd (HLA-A*11:01): ≤ 1 nM | Kd (HLA-A*03:01): 16 nM | Kd (HLA-A*31:01): 242 nM | Kd (HLA-A*68:01): 100 nM

GERQNATEI
Kd (HLA-B*40:02): 53 nM | Kd (HLA-B*44:03): ≥ 10000 nM | Kd (HLA-B*44:02): ≥ 10000 nM | Kd (HLA-B*18:01): ≥ 10000 nM | Kd (HLA-B*40:01): 199 nM | Kd (HLA-B*45:01): 304 nM

FYIQMCTEL
Kd (HLA-A*29:02): 1560 nM | Kd (HLA-A*23:01): 8 nM | Kd (HLA-A*24:02): 24 nM | Kd (HLA-A*30:02): ≥ 10000 nM

KLVGINMSKK
Kd (HLA-A*33:01): ≥ 10000 nM | Kd (HLA-A*11:01): 315 nM | Kd (HLA-A*03:01): 14 nM | Kd (HLA-A*31:01): 518 nM | Kd (HLA-A*68:01): 1610 nM

FQGRGVFEL
Kd (HLA-A*02:03): 307 nM | Kd (HLA-A*68:02): ≥ 10000 nM | Kd (HLA-A*02:01): 143 nM | Kd (HLA-A*02:06): 7 nM | Kd (HLA-A*02:02): 7 nM

YSHGTGTGY
Kd (HLA-A*29:02): 486 nM | Kd (HLA-A*01:01): 199 nM | Kd (HLA-A*30:02): 131 nM

ASCMGLIYNR
Kd (HLA-A*33:01): 445 nM | Kd (HLA-A*11:01): 32 nM | Kd (HLA-A*03:01): 816 nM | Kd (HLA-A*31:01): 7 nM | Kd (HLA-A*68:01): 391 nM

SEQAAEAMEV
Kd (HLA-B*40:02): 85 nM | Kd (HLA-B*44:03): 7670 nM | Kd (HLA-B*44:02): 2640 nM | Kd (HLA-B*18:01): 1900 nM | Kd (HLA-B*40:01): 2670 nM | Kd (HLA-B*45:01): 35 nM

KFLPDLYDYK
Kd (HLA-A*33:01): ≥ 10000 nM | Kd (HLA-A*11:01): 22 nM | Kd (HLA-A*03:01): 255 nM | Kd (HLA-A*31:01): 2410 nM | Kd (HLA-A*68:01): 507 nM

SVQPTFSVQR
Kd (HLA-A*33:01): 181 nM | Kd (HLA-A*11:01): 37 nM | Kd (HLA-A*03:01): ≥ 10000 nM | Kd (HLA-A*31:01): 21 nM | Kd (HLA-A*68:01): 84 nM
